Experimental data published in patent US20070190061A1.

Biological target: HMW-MAA-specific idiotypic mAb 763.74
Assay: peptide concentration giving 50% inhibition of biotinylated mAb 763.74 binding to Colo38 cells, cell ELISA

IC50 [nM]	Binder
871	ARSNYVGYHVRWYFD [peptide PMK2-23H3 (anti-id mAb MK2-23 H3-derived peptide)]
900	IRSGDEVHYHVTAGPRW [peptide PHMW-MAA.D2.7 (HMW-MAA-derived peptide)]
